Data as given in paper PMC11602657, “Nap1 and Kap114 co-chaperone H2A-H2B and facilitate targeted histone release in the nucleus” (The Journal of Cell Biology, 2024).

T1: Nap1 core (residues 75–365) (S. cerevisiae, UniProt P25293 75-365)
T1 chain: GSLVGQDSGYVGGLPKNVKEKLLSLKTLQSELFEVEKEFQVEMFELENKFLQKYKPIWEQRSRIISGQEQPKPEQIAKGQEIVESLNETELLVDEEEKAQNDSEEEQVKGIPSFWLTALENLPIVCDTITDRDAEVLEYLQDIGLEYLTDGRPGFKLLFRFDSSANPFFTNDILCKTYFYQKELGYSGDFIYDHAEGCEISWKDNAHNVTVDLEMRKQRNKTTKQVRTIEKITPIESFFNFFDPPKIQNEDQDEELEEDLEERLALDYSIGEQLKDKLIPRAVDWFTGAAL

T2: MBP-Kap114 (S. cerevisiae, UniProt P53067 1-1004)
T2 construct: TEV site between MBP and Kap114; pMalE modified with a His6-tag immediately N-terminal of MBP and a TEV site after MBP; held on amylose resin in the pull-downs; also called immobilized MBP-Kap114; iK; source: E. coli BL21 Gold, purified (amylose beads, HiTrap Q, SEC); not shown: MBP, N-terminal, kept
T2 sequence: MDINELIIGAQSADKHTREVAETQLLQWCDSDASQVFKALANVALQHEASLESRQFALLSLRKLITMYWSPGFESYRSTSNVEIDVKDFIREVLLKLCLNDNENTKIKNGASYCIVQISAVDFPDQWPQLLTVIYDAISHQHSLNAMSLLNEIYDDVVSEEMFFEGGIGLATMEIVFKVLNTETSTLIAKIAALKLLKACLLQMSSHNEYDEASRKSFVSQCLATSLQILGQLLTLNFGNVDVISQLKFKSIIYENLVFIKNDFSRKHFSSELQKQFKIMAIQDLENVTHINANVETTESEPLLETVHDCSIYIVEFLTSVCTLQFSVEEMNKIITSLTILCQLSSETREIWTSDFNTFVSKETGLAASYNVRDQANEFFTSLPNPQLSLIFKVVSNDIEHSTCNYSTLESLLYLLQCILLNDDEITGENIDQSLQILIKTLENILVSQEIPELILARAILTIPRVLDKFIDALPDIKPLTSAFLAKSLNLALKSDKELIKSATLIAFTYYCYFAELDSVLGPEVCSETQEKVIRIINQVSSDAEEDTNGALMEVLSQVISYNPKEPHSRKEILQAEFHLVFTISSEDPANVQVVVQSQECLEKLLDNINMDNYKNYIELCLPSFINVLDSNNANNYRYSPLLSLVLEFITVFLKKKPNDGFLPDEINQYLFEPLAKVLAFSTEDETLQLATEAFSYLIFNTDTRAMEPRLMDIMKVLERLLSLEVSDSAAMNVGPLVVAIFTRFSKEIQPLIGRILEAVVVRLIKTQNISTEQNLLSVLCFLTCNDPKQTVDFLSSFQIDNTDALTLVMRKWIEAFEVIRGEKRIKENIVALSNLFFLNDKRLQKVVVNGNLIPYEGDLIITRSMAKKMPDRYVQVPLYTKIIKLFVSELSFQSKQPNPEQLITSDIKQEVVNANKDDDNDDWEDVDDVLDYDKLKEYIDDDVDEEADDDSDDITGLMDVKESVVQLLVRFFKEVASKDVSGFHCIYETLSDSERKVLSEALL

B1: Kap114 (receptor, S. cerevisiae)
chain: T2 sequence
notes: also called Sc Kap114; source: E. coli, expressed as GST-Kap114, purified (Glutathione Sepharose 4B, on-column TEV cleavage, SEC)
B2: Nap1 α5/6mut (E194A/D201A/D205A) (natural protein, S. cerevisiae, UniProt P25293 1-417, looked up)
chain: MSDPIRTKPKSSMQIDNAPTPHNTPASVLNPSYLKNGNPVRAQAQEQDDKIGTINEEDILANQPLLLQSIQDRLGSLVGQDSGYVGGLPKNVKEKLLSLKTLQSELFEVEKEFQVEMFELENKFLQKYKPIWEQRSRIISGQEQPKPEQIAKGQEIVESLNETELLVDEEEKAQNDSEEEQVKGIPSFWLTALANLPIVAATITARDAEVLEYLQDIGLEYLTDGRPGFKLLFRFDSSANPFFTNDILAKTYFYQKELGYSGDFIYDHAEGAEISWKDNAHNVTVDLEMRKQRNKTTKQVRTIEKITPIESFFNFFDPPKIQNEDQDEELEEDLEERLALDYSIGEQLKDKLIPRAVDWFTGAALEFEFEEDEEEADEDEDEEEDDDHGLEDDDGESAEEQDDFAGRPEQAPECKQS
notes: also called mutant α5/6mut; source: E. coli BL21 gold, purified (Ni-NTA, TEV cleavage, HiTrap Q, Superdex S200)
B3: Nap1 core (residues 75–365), His tag removed (domain or fragment, S. cerevisiae, UniProt P25293 75-365, looked up)
chain: T1 chain
notes: Nap1 (nucleosome assembly protein 1), S. cerevisiae, core, residues 75–365; also called Nap1_(2) core; source: E. coli, purified (nickel-NTA, ion exchange, thrombin cleavage, SEC)
B4: Nap1 core (residues 75–365) (domain or fragment, S. cerevisiae, UniProt P25293 75-365, looked up)
chain: T1 chain
notes: Nap1 (nucleosome assembly protein 1), S. cerevisiae, core, residues 75–365; pET15b vector, gift from Karolin Luger; The His tag is said to be removed only for pull-down assays; also called His-Nap1 core; Nap1 core dimer; source: E. coli, purified (nickel-NTA, ion exchange, SEC)

What was measured:
[1] = target: TBP (Saccharomyces cerevisiae) (UniProt P13393); conditions: cited from earlier work
[2] = target: B1; assay: SEC-MALS; equimolar mixture of Kap114, Nap1_(2), H2A-H2B and Ran^GTP; Assay buffer without glycerol; Nap1 counted as dimer
[3] = target: Nap1 FL (C200A, C249A, C272A) (S. cerevisiae) (UniProt P25293); assay: as above
[4] = target: B1; assay: SEC-MALS; 1:1:1 mixture of Kap114, Nap1_(2) and H2A-H2B (80 µM each), no Ran^GTP; Assay buffer without glycerol; Nap1 counted as dimer
[5] = target: Nap1 FL (C200A, C249A, C272A) (S. cerevisiae) (UniProt P25293); assay: as above
[6] = target: T1, Nap1 core (residues 75–365); assay: AUC
[7] = target: B4; assay: AUC; sedimentation velocity; Kap114 titrated into the Nap1 core dimer; isotherm with one-site model; 20 mM Tris-HCl pH 7.5, 150 mM NaCl, 2 mM MgCl2, 2 mM TCEP; conditions: both partners purified
[8] = target: T2, MBP-Kap114; assay: pull-down; MBP-Kap114 (WT or mutant; or MBP alone) 1 µM immobilized on amylose resin, equimolar Nap1_(2) ± H2A-H2B (1 or 2 µM) ± Ran^GTP; Assay Buffer (20 mM HEPES pH 7.4, 150 mM NaCl, 2 mM MgCl2, 10% glycerol, 2 mM DTT), 30 min at 4°C; Coomassie-stained SDS-PAGE; conditions: both partners purified
[9] = target: B1; assay: AUC; sedimentation velocity c(s) of Kap114, Nap1_(2) core and Ran^GTP alone and in mixtures at indicated molar ratios; 20 mM Tris-HCl pH 7.5, 150 mM NaCl, 2 mM MgCl2, 2 mM TCEP; conditions: both partners purified
[10] = target: the molecule itself; assay: cryo-EM structure; Nap1 core dimer:H2A-H2B 1:2, then 1 molar ratio Kap114, 0.05% glutaraldehyde 1 min, SEC; no Ran^GTP; gave Nap1_(2), Kap114•H2A-H2B and two ternary assemblies

Chain of TBP (Saccharomyces cerevisiae) (P13393 2-240): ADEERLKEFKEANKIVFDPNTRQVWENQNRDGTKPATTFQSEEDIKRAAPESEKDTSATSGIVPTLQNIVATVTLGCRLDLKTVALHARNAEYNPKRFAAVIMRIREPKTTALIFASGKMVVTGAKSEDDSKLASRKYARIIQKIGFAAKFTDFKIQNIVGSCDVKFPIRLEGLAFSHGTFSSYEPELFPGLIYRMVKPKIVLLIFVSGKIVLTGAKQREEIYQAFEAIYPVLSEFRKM

For Kap114 (from UniProt P53067), the Kd [1] is given as under 0.001 µM.

For “Sc H2A-H2B (from UniProt P04911 2-124; P02293 5-131) (complex)”, the stoichiometry N [2] was 1, the stoichiometry N [3] was 1 and the stoichiometry N [4] was 1. The stoichiometry N [5] was 1.

With B1 the Kd [6] was 1.04 µM and the “stoichiometry N” value [7] was 1.

B2: binds [8].

B3: binds [8].

B4: binds [9]; binds [10].
